Measured values published in article PMC3575510, “Antibiotic Inducibility of the mexXY Multidrug Efflux Operon of Pseudomonas aeruginosa: Involvement of the MexZ Anti-Repressor ArmZ” (PLoS ONE, 2013).

Target: T1, MexZ (LexA DNA-binding domain fusion encoded by pSF004, pMS604::mexZ) (P. aeruginosa, UniProt G3XCU9 1-210)
T1 construct: also called repressor of mexXY; mexZ product; source: E. coli SU202, bacterial two-hybrid fusion expressed from pSF004 (pMS604::mexZ)
T1 sequence: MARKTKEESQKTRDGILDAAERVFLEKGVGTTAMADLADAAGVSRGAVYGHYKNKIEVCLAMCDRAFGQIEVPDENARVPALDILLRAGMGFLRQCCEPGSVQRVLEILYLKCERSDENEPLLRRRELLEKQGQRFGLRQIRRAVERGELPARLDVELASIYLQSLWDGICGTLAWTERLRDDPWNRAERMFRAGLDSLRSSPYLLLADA
Assay: two-hybrid; bacterial LexA-based two-hybrid in E. coli SU202 (pMS604 and pDP804 derivatives); cells grown to mid-log phase in L-broth with 5 mM IPTG; interaction represses lacZ, read as reduced β-galactosidase activity
Details: partners not purified

B1: ArmZ (PA5471) wild type (LexA DNA-binding domain fusion encoded by pSF005, pDP804::armZ) (natural protein)
chain: MGNYIKPLSAGVALIASDSTWIEGKAIQQLQTTAELDGMCRVVGLPDLHPGRGYPVGAAFFSVGRFYPALVGNDIGCGMALWETGLALGKLSADKLEKRLGNLDLPLDETWSDCIEALDLPAREHWRALGTIGGGNHFAELQQVETVFDQAALHALGLDADRLQLLVHSGSRGLGQAILQEHVSLHGHAGLLDGSLEASAYLARHADALRFAEGNRQLIARRILERLRCDGLELLDINHNLVVPAQVDGVDGWLHRKGATPADQGVLVIPGSRGDYSYLVEPVPSAQSLFSLAHGAGRKWQRGECRERLAARFSVDQLGRTRLGSRVICGDRQLIYEEAPEAYKGIDSVVGALLEAGLLRLVARLKPVLTYKTRGECCR
notes: also called anti-repressor MexZ; ArmZ (WT); source: E. coli SU202, bacterial two-hybrid fusion expressed from pSF005 (pDP804::armZ)
fold reduction of β-galactosidase activity (relative to SU202 carrying the mexZ plasmid only): 3 fold
